Consider 14 molecules from US20220112288A1 (published 2022).

The labels stand for the following.
B1: 75110_06C16A (antibody, V domains shown)
VH: QVQLQESGPGLVTPSETLSLSCTVSGGSISDYYWSWIRQPGGKGLEWIGRIYSSGSTNYNPSLKSRVTMSVDTSKNQFSLKLSSVTAADTAVYFCARDREDYYYYGMDVWGQGTTVTVSS
VL: DIQMTQSPSSLSASVGDRVTITCQASHDISNYLNWYQQKPGKAPKLLIYAASNLETGVPSRFSGSGSGTDFSFTISSLQPEDIATYYCQQYDHLPLTFGGGTKVEIK
notes: Tested as non-clonal AlivaMab Mouse Kappa hybridoma supernatant (detected with anti-mouse Fc gamma and anti-human kappa)
B2: 75110_05G15A (antibody, V domains shown)
VH: QVQLQESGPGLVKPSQTLSLTCTVSGGSISSGGYFWSWIRQHPGKGLEWIGCIYYSGSTYYIPSLKSRVTISVDTSKNQFSLKLRSVTAADTAVYYCARDGYDYWYFDLWGRGTLVTVSS
VL: not shown
B3: 75110_03I08A (antibody, V domains shown)
VH: QVQLQESGPGLVKPSETLSLTCTVSGGSISSYYWSWIRQPPGKGLEWIGYIYYSGSTNYNPSLKSRVTISVDTSKNQFSLKLSSVTAADTAVYYCAREGEQWFYGLDVWGQGTTVTVSS
VL: EIVLTQSPGTLSLSPGERATLSCRASQSVSSTYLAWYQQKPGQAPRLLIYGSSSRATGIPDRFSGSGSGTDFTLTISRLEPEDFAVYYCQQYGNSFPITFGQGTRLEIK
notes: Tested as non-clonal hybridoma supernatant (AlivaMab Mouse Kappa), detected with anti-mouse Fc and anti-human kappa
B4: 75110_04F22A (antibody, V domains shown)
VH: EVQLVESGGGLVQPGGSLRLSCAASGFTFSSYDIHWVRQATGKGLEWVSTIGTAGDTYYPGSVKGRFTISRENAKNSLYLQMNSLRAGDTAVYYCARGGYYYYGMDVWGQGTTVTVSS
VL: EIVLTQSPGTLSLSPGERATLSCRASQSVYSSYLAWYQQKPGQAPRLLIYGASSRATGIPDRFSGSGSGTDFTLTISRLEPEDFAVYYCQQFGTSPFTFGPGTKVDIK
notes: Tested as non-clonal AlivaMab Mouse hybridoma supernatant (human variable regions and human kappa, mouse Fc); also called ADS75110 non-clonal supernatant 04F22A
B5: 75110_07E04A (antibody, V domains shown)
VH: B4 VH with A24V, I34M, N76K, S77F
VL: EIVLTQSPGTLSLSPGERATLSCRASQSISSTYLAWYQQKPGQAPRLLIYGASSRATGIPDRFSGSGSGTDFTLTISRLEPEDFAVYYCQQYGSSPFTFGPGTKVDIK
notes: Tested as non-clonal AlivaMab Mouse hybridoma supernatant (human variable regions and human kappa, mouse Fc); also called ADS75110 non-clonal supernatant 07E04A
B6: 75110_08H06A (antibody, V domains shown)
VH: B4 VH with S31N, I34M, Y101D
VL: B4 VL with V29I, Y30T, S32I, Q38R, F92Y, T94S
notes: Tested as non-clonal AlivaMab Mouse hybridoma supernatant (human variable regions and human kappa, mouse Fc); also called ADS75110 non-clonal supernatant 08H06A
B7: 75110_05K11A (antibody, V domains shown)
VH: B4 VH with I34M, A40P, G61A, Y100F
VL: B4 VL with A19V, Y30S, S31N, S32T, A85V, F92H, T94S
notes: Tested as non-clonal AlivaMab Mouse hybridoma supernatant (human variable regions and human kappa, mouse Fc); also called ADS75110 non-clonal supernatant 05K11A
B8: 75110_13C07A (antibody, V domains shown)
VH: B4 VH with G10V, S31N, I34M, I69L, N83H, G99A, Y101G
VL: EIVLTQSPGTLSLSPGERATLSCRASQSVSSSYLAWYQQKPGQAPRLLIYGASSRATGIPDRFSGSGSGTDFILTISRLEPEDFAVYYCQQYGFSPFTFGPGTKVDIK
notes: Tested as non-clonal AlivaMab Mouse hybridoma supernatant (human variable regions and human kappa, mouse Fc); also called ADS75110 non-clonal supernatant 13C07A
B9: 75110_14H13A (antibody, V domains shown)
VH: B4 VH with S31N, I34M, E72K, N83I, Y100D
VL: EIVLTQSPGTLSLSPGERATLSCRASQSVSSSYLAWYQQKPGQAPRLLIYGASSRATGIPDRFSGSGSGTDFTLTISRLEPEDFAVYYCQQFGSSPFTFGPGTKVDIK
notes: Tested as non-clonal AlivaMab Mouse hybridoma supernatant (human variable regions and human kappa, mouse Fc); also called ADS75110 non-clonal supernatant 14H13A
B10: 75110_10N21A (antibody, V domains shown)
VH: B4 VH with I34M, A40V
VL: B4 VL with V29F, Y30I, E80D, F92S, T94N, I107V
notes: Tested as non-clonal AlivaMab Mouse hybridoma supernatant (human variable regions and human kappa, mouse Fc); also called ADS75110 non-clonal supernatant 10N21A
B11: 75110_04P06A (antibody, V domains shown)
VH: B4 VH with S31N, I34M, Y100D
VL: B4 VL with G9D, V29L, Y30S, S32V, S77N, A85V, F92Y, T94S
notes: Tested as non-clonal AlivaMab Mouse hybridoma supernatant (human variable regions and human kappa, mouse Fc); also called ADS75110 non-clonal supernatant 04P06A
B12: 75110_02I16A (antibody, V domains shown)
VH: QVQLQQWGAGLLKPSETLSLTCDVYGGSFSGYYWTWIRQPPGKGLEWIGEINHSGTTNSNPSLKSRVTISVDTSKSQFSLRLSSVTAADTAVYFCTRELNWFDPWGQGTLVTVSS
VL: DIQMTQSPSSVSASVGDRVTITCRASQDIANWLAWYQQKPGKAPQLLIYAASSLLGGVPSRFSGSGSGADFTLTISSLHPEDFATYYCQQANSFPYTFGQGTKLEIK
notes: Tested as non-clonal AlivaMab Mouse hybridoma supernatant (human variable regions and human kappa, mouse Fc); also called ADS75110 non-clonal supernatant 02I16A
B13: 75110_10K21A (antibody, V domains shown)
VH: EVQLVESGGGLVQPGGSLRLSCAASGFTFSSYWMTWVRQAPGKGLEWVANIKQDGSEKYYVDSVKGRFTISRDNAKNSLYLQMNSLRAEDTAVYYCVRDRYDALDIWGQGTMVTVSS
VL: AIQMTQSPSSLSASVGDRVTITCRASQGIRNDLNWYQQKPGKAPKLLIYAASSLQSGVPSRFSGSGSGTDFTLTISSLQAEDFATYYCLKDYNYPYTFGQGTKLEIK
notes: Tested as non-clonal AlivaMab Mouse hybridoma supernatant (human variable regions and human kappa, mouse Fc); also called ADS75110 non-clonal supernatant 10K21A
B14: 75110_01H18A (antibody, V domains shown)
VH: QVQLQQWGAGLLKPSETLSLTCAVYGGSFSGYYWSWIRQSPGKGLEWIGEINQSGSTNYNPSLKSRVTISVDTSKNQFSLKLSSVTAADTAVYYCARVINWFDSWGQGTLVTVSS
VL: DIQMTQSPSSVSASVGDRVTITCRASQGISSWLAWYQQKPGKAPKLLIYAASSFQSGVPSRFSGSGSGTDFTLTISSLQTEDFATYYCQQANSFPYTFGQGTRLEIK
notes: Tested as non-clonal AlivaMab Mouse hybridoma supernatant (human variable regions and human kappa, mouse Fc); also called ADS75110 non-clonal supernatant 01H18A

Substitutions are numbered along the chain they refer to.

The target of the first assay is T1, human CD4 on cells (SKW3 cells; human PBMCs) (human, UniProt P01730 26-458).
T1 construct: whole, on cells; SKW3 CD4 knockout cells served as the negative cell line in the primary screen; also called hCD4; huCD4
Description: FACS binning on SKW3 cells; competitor RPA-T4-PE-Dazzle 594; background 783, max binding 15000.
With B1, the “RPA-T4-PE-Dazzle 594 signal with supernatant” value is 15600.

For B2, the “RPA-T4-PE-Dazzle 594 signal with supernatant” value was 15800.

The target in a further assay is T1, human CD4 on cells (SKW3 cells; human …). Description: FACS binning on SKW3 cells; competitor OKT4a; background 5000, max binding 35000.
For the molecule B1, the “OKT4a signal (anti-hu A647) with supernatant” value stood at 36800.

Take B2: the “OKT4a signal (anti-hu A647) with supernatant” value is 42300.

The target in another assay is T2, human CD4 on cells (SKW3 cells; human PBMCs) (human, UniProt P01730 26-458).
T2 construct: whole, on cells; SKW3 CD4 knockout cells served as the negative cell line for the WT vs KO ratios; also called hCD4; SKW3 WT
Put plainly: FACS confirmation, supernatant on SKW3 WT cells, anti-hu Kappa FITC (Bkrd gMFI = 2500).
As for B3, the gMFI worked out at 6120 gMFI.

A further assay concerns the target T2, human CD4 on cells (SKW3 cells; human …). Description: FACS confirmation, supernatant on SKW3 WT cells, anti-mFc 647 (Bkrd gMFI = 3300).
B3 returned a gMFI of 28000 gMFI.

In the next assay the target is T1, human CD4 on cells (SKW3 cells; human …). Description: FACS primary screen, hybridoma supernatant, SKW3 vs SKW3 CD4 KO cells.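 Also: flow cytometry on mixed SKW3 and dye-labeled SKW3 CD4 knockout cells after 30 min at 4 °C with supernatant, ratio of binding signal on parental versus knockout cells.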
Regarding B1, the “SKW3 WT vs KO ratio, anti-hKappa-FITC” value is 1.9 and the “SKW3 WT vs KO ratio, anti-mFc-647” value worked out at 5.

B2: the “SKW3 WT vs KO ratio, anti-hKappa-FITC” value amounted to 1.5 and the “SKW3 WT vs KO ratio, anti-mFc-647” value was determined as 2.8.

For the next assay the target is unchanged. Put plainly: FACS binning on SKW3 cells; competitor OKT4-A488; background 2163, max binding 8200.
Regarding B1, the “OKT4-A488 signal with supernatant” value was determined as 8240.

On to B2, for which the “OKT4-A488 signal with supernatant” value amounted to 8080.

For the next assay, the target named is T3, Recombinant human CD4 (R&D Systems, Cat. 10327-CD) (human, UniProt P01730 26-390, limits assumed).
T3 construct: Bought protein; also called huCD4
Put plainly: BLI (Octet Red 384), non-clonal supernatant captured on AMC sensors, 100 nM human CD4. A general note: In BLI a coated tip is dipped into the sample, and binding shifts an interference pattern.
Regarding B4, the Response stood at 0.05.

On to B5, for which the Response came to 0.01.

With B6, the Response is 0.06.

In the case of B7, the Response turned out to be 0.05.

As to B8, the Response stood at 0.0171.

Turning to B9, the Response turned out to be 0.14.

B10: the Response stood at 0.0658.

As to B11, the Response was 0.06.

For the molecule B12, the Response was found to be 0.0373.

For B13, the Response came out at 0.0687.

For the molecule B14, the Response was 0.0657.

In another assay the target is T1, human CD4 on cells (SKW3 cells; human …). Put plainly: FACS confirmation, supernatant on SKW3 cells; background gMFI 2500.
For B1, the “gMFI on SKW3 WT, anti-hu Kappa FITC” value came out at 4660 gMFI.

Turning to B2, the “gMFI on SKW3 WT, anti-hu Kappa FITC” value was determined as 6000 gMFI.

In a further assay the target is T2, human CD4 on cells (SKW3 cells; human …). Put plainly: FACS primary screen, non-clonal hybridoma supernatant; SKW3 WT vs SKW3 CD4 KO cells, anti-hKappa-FITC.
Regarding B3, the “SKW3 WT vs KO anti-hKappa-FITC” value stood at 2.2 fold.

For a further assay, the target named is T1, human CD4 on cells (SKW3 cells; human …). Description: FACS confirmation, supernatant on human PBMCs.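 Also: flow cytometry with hybridoma supernatants incubated on human PBMCs for 30 min at 4 °C.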
Regarding B1, the “PBMCs CD4+ gate RL1 binding, anti-mFc 647” value came out at 297000 and the “PBMCs CD4+ percent bound of viable” value stood at 28%.

Take B2: the “PBMCs CD4+ gate RL1 binding, anti-mFc 647” value worked out at 147000 and the “PBMCs CD4+ percent bound of viable” value is 32%.

A further assay concerns the target T4, huCD4-HIS (human, UniProt P01730 26-390, limits assumed).
T4 construct: the ELISA is not described in the text of this stretch; also called human CD4-HIS
Put plainly: ELISA binning; competitor ibalizumab; 100 ng/mL huCD4-HIS, anti-HIS HRP; background 45, max binding 3000000.
For B1, the “Ibalizumab ELISA binning signal” value was determined as 1.35e+06.

With B2, the “Ibalizumab ELISA binning signal” value was determined as 1.7e+06.

The next assay addresses T1, human CD4 on cells (SKW3 cells; human …). Description: FACS confirmation, supernatant on SKW3 cells; background gMFI 3300.
With B1, the “gMFI on SKW3 WT, anti-mFc 647” value stood at 12100 gMFI.

As for B2, the “gMFI on SKW3 WT, anti-mFc 647” value was found to be 28600 gMFI.

Another assay addresses T3, Recombinant human CD4 (R&D Systems, …). Put plainly: BLI (Octet Red 384), non-clonal supernatant captured on AMC sensors, 100 nM human CD4, 1:1 local fit.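 Also: hybridoma antibodies from supernatants, one CD4 concentration giving single-point kinetics per supernatant, with curves fitted over both association and dissociation phases.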
In the case of B4, the dissociation constant Kd was < 0.001 nM, the koff was < 1e-07 s⁻¹ and the kon turned out to be 15000 M⁻¹ s⁻¹.

Take B5: the dissociation constant Kd was found to be 11000 nM, the koff came out at 0.013 s⁻¹ and the kon came to 1200 M⁻¹ s⁻¹.

Take B6: the Kd is < 0.001 nM, the koff is < 1e-07 s⁻¹ and the kon turned out to be 120000 M⁻¹ s⁻¹.

In the case of B7, the Kd is < 0.001 nM, the off-rate (koff) was < 1e-07 s⁻¹ and the kon was found to be 12000 M⁻¹ s⁻¹.

Consider B8, for which the Kd was found to be 84 nM, the koff stood at 0.0182 s⁻¹ and the kon turned out to be 217000 M⁻¹ s⁻¹.

In the case of B9, the Kd was < 0.001 nM, the koff was < 1e-07 s⁻¹ and the kon stood at 100000 M⁻¹ s⁻¹.

Take B10: the Kd is 0.873 nM, the koff was determined as 0.000133 s⁻¹ and the on-rate (kon) turned out to be 152000 M⁻¹ s⁻¹.

In the case of B11, the Kd was < 0.001 nM, the koff was < 1e-07 s⁻¹ and the on-rate constant (kon) was found to be 12000 M⁻¹ s⁻¹.

With B12, the Kd stood at 3.9 nM, the koff amounted to 0.0012 s⁻¹ and the kon is 308000 M⁻¹ s⁻¹.

Take B13: the Kd is 2.66 nM, the koff was determined as 0.000362 s⁻¹ and the kon is 136000 M⁻¹ s⁻¹.

As for B14, the equilibrium dissociation constant (Kd) was 0.902 nM, the koff came to 0.000148 s⁻¹ and the kon came to 165000 M⁻¹ s⁻¹.

The target of a further assay is T2, human CD4 on cells (SKW3 cells; human …). Put plainly: FACS confirmation, supernatant on human PBMCs, anti-mFc 647, CD4+ gate.
For the molecule B3, the “CD4+ gate RL1 Binding” value amounted to 338000.

A further assay has the same target. Description: FACS confirmation, supernatant on human PBMCs, anti-mFc 647, percent of viable cells.
Regarding B3, the “CD4+ Percent Bound of Viable” value came to 32%.

Another assay has the same target. Put plainly: FACS primary screen, non-clonal hybridoma supernatant; SKW3 WT vs SKW3 CD4 KO cells, anti-mFc-647.
Turning to B3, the “SKW3 WT vs KO anti-mFc-647” value stood at 7.6 fold.

The Kd is the concentration at which binding is half-saturated. One may read the koff as a measure of how fast the partners let go of each other. Usually kon stands for a measure of how fast the partners come together.
